{"source": "the nanobody polyreactivity screen of Harvey et al. (2022)"}
{"test": "yeast display, Sf9 membrane polyspecificity reagent, FACS + sequencing; frameworks hold sequencing errors", "method_in_brief": "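Galactose-induced (36–48 hours) yeast carrying a synthetic nanobody display library were exposed to 10% biotinylated, detergent-solubilized Sf9 membrane reagent at 4 °C for 1 hour. FACS followed streptavidin microbead enrichment, using low and high (top ~1%) gates for expression (anti-HA) and reagent binding (streptavidin). Colony PCR, MiSeq 2 × 250 sequencing and CDR-length filtering followed. Labels for polyreactivity reflect the gate of origin.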"}
{"sequence": "QDQLVESGGGLVHAGGSLRLSCAASGSTFSIYAMGWYRQAPGKERELVAAIPYSGGSTYYADSVKGRFTISRDNAKNTVYLQMHSLKPEDTAVNYCAAEVYDSRWWYSGATDDYWGQGTQVSVSS", "polyreactivity (PSR sort gate)": "high polyreactivity"}
{"sequence": "QDQLVESGGGLVQAAGSLRLSCAASGSTFLGNALGWYRQARGKERQLVAAISGRGGSTYYADSVKGRFTISRDNAKNTVYVQMNSLKPEDTAVYYCNAVGRRVRTWHDYDYWGKGTQVTVSS", "polyreactivity (PSR sort gate)": "high polyreactivity"}
{"sequence": "QDQLVESGGGLVQAGASLRLSCAASGFTFHNKFKGWYRQAPGKERELVATISKSGGSTYYADSVKGRFTISRDYAKNTVNLQMNSLKPEDTAVYYCARRYRDYGRYGYWGQGTQVTVSS", "polyreactivity (PSR sort gate)": "high polyreactivity"}
{"sequence": "QDQLVESGGGLVQAGCSLRLSCAASGSTFHLNAMGWYRQAPGKERELVAAITWSGGSTYYADSVKGRFTISRDNAKNTVYLQMNSLKPEDTAVYYCNAGLGKFPVKGGRRYRLDYWGQGTQVTVSS", "polyreactivity (PSR sort gate)": "low polyreactivity"}
{"sequence": "QDQLVESGGGLVQAGGRLRLSCAASGSIFNYYTMGWYRQAPGKETELVAAITWSGGRTYYADSVKGRFTISRDNAKNTVYLQMNSLKPEDTAVYYCNAVAYKPGGGEDFESWGQGTQVTVSS", "polyreactivity (PSR sort gate)": "high polyreactivity"}
{"sequence": "QDQLVESGGGLVQAGGRLRLSCAASGSTFRRYAMGWYRQAPGTERDWVAAISGGGGSTYYADSVKGRFTISRDNAKNTVYLQMNSLKPEDTAVYYCNIPFPYYPDGPNGYDYWGQGTQVTVSS", "polyreactivity (PSR sort gate)": "low polyreactivity"}
{"sequence": "QDQLVESGGGLVQAGGSHRLSCAASGRIFARNAMGWYRQAPGKERELVATIRVGGGSTYYADSVKGRFTISRDNAKNTVYLQLNSLKPEDTAVYDCAVRQLYSYPGDRRGYYWGQGTQVTVSS", "polyreactivity (PSR sort gate)": "low polyreactivity"}
{"sequence": "QDQLVESGGGLVQAGGSIRLSCAASGSILRSNALGWYRQAHVQERELVAAITFNGGSTYADSVKGRFTISRDNAKNNVYLQMNSLKPVDTSVSYCATGDGPCLFDYWGQGTQVTVSS", "polyreactivity (PSR sort gate)": "low polyreactivity"}
{"sequence": "QDQLVESGGGLVQAGGSIRLSCAASGYIFLLYDMGWYRQAPGKERDMVATITSGGGTYYADSVKGPFTISRDNAKNTVYLQMNSLKPEDTAVYYCNADLYRWTGRSYWDKHGYWGQVTQVTVSS", "polyreactivity (PSR sort gate)": "low polyreactivity"}
{"sequence": "QDQLVESGGGLVQAGGSLRISCAASGITLEYNAMGGYRQAPGKERELVATIRSGGSTNYADSVKVRFTISRDNANNTVYLQMNSLKPEDTAVYYCAANHNTEYDWGQGTQVTVSS", "polyreactivity (PSR sort gate)": "high polyreactivity"}
{"sequence": "QDQLVESGGGLVQAGGSLRISCAASGSIFDVNAMGWYRQAPGKERELVAAISDSGGSTYYADSVKGRFTISRDNAKNTVYLEMNSLKPVDTAVYYCNADWSWYNYYDFDYWGQGTQVTVSS", "polyreactivity (PSR sort gate)": "low polyreactivity"}
{"sequence": "QDQLVESGGGLVQAGGSLRISCAASGSIFTYNAMGWYREAPGKERELVAAINTSGSTNYADSVKGRFTISRDNAKNTVYLQKNSLKPEDTAVYYCAADYPYWRRPYSRYGYWGQGTQVTVSS", "polyreactivity (PSR sort gate)": "low polyreactivity"}
{"sequence": "QDQLVESGGGLVQAGGSLRISIAASARTFRDYVMGWSRQAPGKERELVAAISTRGASTYYADSVKGRFTISRDNAKNTVYLQMNTLKPEDTADYYCAARSTRRGNEYDYWGQGTQVTVSS", "polyreactivity (PSR sort gate)": "high polyreactivity"}
{"sequence": "QDQLVESGGGLVQAGGSLRLICAASASTFTRYAMGWYRQAPGKERELVACITGRGGSTYYADSVKGRFPISRDYAKNTVYLQMNCLKPEDTAVYYCARAEGKCPYSRYWPYRGGYDYWGQGTQVTRSS", "polyreactivity (PSR sort gate)": "high polyreactivity"}
{"sequence": "QDQLVESGGGLVQAGGSLRLICAASGRTFNRYGMGWNRQATGKERELVASITSGGSTNYADSVKGRFTISRDNAKNNVYLQMNSLKLEDTAVYYCAKRSIGRYPRTYDYWGQGTQVTVSS", "polyreactivity (PSR sort gate)": "low polyreactivity"}
{"sequence": "QDQLVESGGGLVQAGGSLRLICAASGRTFYPYVMGWYRQAPGKERDLVAAITDSGGNTYYADSVKGRFTISRDNAKNTVYLQMNSLKPEDTAVYYCNARFYYPSRRGTFQYNYWGQGTQVTVSS", "polyreactivity (PSR sort gate)": "low polyreactivity"}
{"sequence": "QDQLVESGGGLVQAGGSLRLICAASGYTFGHYVMGWYRQAPGKERELVAAITLSGGGTYYADSVKGRFTISRDNAKNTVYLQMNCLKPEDTAVYYCAAVGGEHAKKTYSRYKVDYWGQGTQVTVSS", "polyreactivity (PSR sort gate)": "low polyreactivity"}
{"sequence": "QDQLVESGGGLVQAGGSLRLRCAASGFIFRYYAMGWYRQAPGKERELVAAIDYSGGSTNYADSVKRRFTISRDNAKNTVYLQMNSLKPEDTAVYYCNAEYTWHRGYDYWGQGTQVTVSS", "polyreactivity (PSR sort gate)": "low polyreactivity"}
{"sequence": "QDQLVESGGGLVQAGGSLRLRCAASGRTFEGNAMGWYRQAAGTEGELVAAMTSGGPTNSADSVKGRFTISRDNAKNTVYFQMNSLKPEDTAVYYCADETRDRSTYFPGQAYDYWGQGTQVTVSS", "polyreactivity (PSR sort gate)": "low polyreactivity"}
{"sequence": "QDQLVESGGGLVQAGGSLRLSCAASARIFPHYPMGWYRQAPGKERELVATITSGGRTNYADSVKGRFTISRDNAKNTVYLQMNSLKPEDTAVYYCAVDTWGSSWYDLFRETSDYWGHGTQVTVSS", "polyreactivity (PSR sort gate)": "low polyreactivity"}
{"sequence": "QDQLVESGGGLVQAGGSLRLSCAASGFIFARYVMGWYRPAPGKERELVASITGSGVSTYYADSVKGRFTISRDNAKNTVYLQMNSLKPEDTAVYYCATRVYRRYYLNSWYNYWGQGTQVTVSS", "polyreactivity (PSR sort gate)": "high polyreactivity"}
{"sequence": "QDQLVESGGGLVQAGGSLRLSCAASGFIFDDNAMGGYRQAPGKERELVAAITSGGGSTYYADSVKGRFTISRDNAKYTVYLQMNSLKPEDTAVYYCNAVPSQHDEFDYWGQGTQVTVSS", "polyreactivity (PSR sort gate)": "low polyreactivity"}
{"sequence": "QDQLVESGGGLVQAGGSLRLSCAASGFIFDDNAMGWSRQAPGKERELVAAITSGGGSTYYAVSVKGRFTISRDNAKNTVYLQMNSLKPEDTAVYYCNAVPSQHDEFDYWGQGTQVTVSS", "polyreactivity (PSR sort gate)": "low polyreactivity"}
{"sequence": "QDQLVESGGGLVQAGGSLRLSCAASGFIFGNYALGWYRQAPGKERELVATITWRGGSTYYADSVKGRFTISRDNAKNTVYLQMNSLKPEDTAVYYCARPYASYSSFYYYGYWGQGTQVTVSS", "polyreactivity (PSR sort gate)": "high polyreactivity"}
{"sequence": "QDQLVESGGGLVQAGGSLRLSCAASGFIFGRYTMGWYRQAPWKERELVAAISGSDVSTYYADSVKGRFTISRDNAKNTVYIQMNSLKPEDTAVYYCAADAPWAYYEYDYWGQGTQVTVSS", "polyreactivity (PSR sort gate)": "low polyreactivity"}
{"sequence": "QDQLVESGGGLVQAGGSLRLSCAASGFIFYFYAMVWYRQAPGKERELVAAISSGGSTNYADSVKGRFTISRDNAKNTVYLQMNSLKPEDTAVYYCNKGGYYKYFLNDYNYWGQGTQVTVSS", "polyreactivity (PSR sort gate)": "low polyreactivity"}
{"sequence": "QDQLVESGGGLVQAGGSLRLSCAASGFILGLNAMGWYRQAPGKEREFVADISWSGDSTYYADSVKGRFTISRDNAKNTVYLQMNSLKPEDTAFYYCAAVPYYNWGYYYWGQGTQVTVSS", "polyreactivity (PSR sort gate)": "low polyreactivity"}
{"sequence": "QDQLVESGGGLVQAGGSLRLSCAASGFIYFQYAMGWYRQAPGKERELVAAISGSGVTTYYADSVKGRFTISRDNAKYTVYLQMNSLKPEDTAVYYCNAALRWKYDWGQGTQVTVSS", "polyreactivity (PSR sort gate)": "low polyreactivity"}
{"sequence": "QDQLVESGGGLVQAGGSLRLSCAASGFTFGTYAMGWYRQAPGKERELVAAISARGGSTYYADSVKGRFTISRDNAKNTVYLQMNSLKPEDTAVYYCAAYYGRHVTPPTGYDYWGQGTQVTVSS", "polyreactivity (PSR sort gate)": "high polyreactivity"}
{"sequence": "QDQLVESGGGLVQAGGSLRLSCAASGFTFGWYAMGWYRQAPGKERELVAAITSRGGSTYYPDSVKGRFTISRDNAKNTVYLQMNSLKPEDTAVYYCAALYGWSGYDYWGQGTQVTVSS", "polyreactivity (PSR sort gate)": "high polyreactivity"}
{"sequence": "QDQLVESGGGLVQAGGSLRLSCAASGFTFHNNVMGWYRQAPGKERELVATISKSGGSTYYADSVKGRITISRDNAKNTVYLQMNSLKPEDTAVYYCARRYRDYGRYGYWGQGTQVTVSS", "polyreactivity (PSR sort gate)": "high polyreactivity"}
{"sequence": "QDQLVESGGGLVQAGGSLRLSCAASGFTFRAYTMGWYRQAPGKERELVAAITYSGGRTYYADSVKGRFTISRDNAKKTVNLQMNSLNPEDTAVYYCAKRGWALSEYDYWGQGTQVTVSS", "polyreactivity (PSR sort gate)": "high polyreactivity"}
{"sequence": "QDQLVESGGGLVQAGGSLRLSCAASGFTFTWNAMGWYRQAPGKERELVAGITRGGSTNYADSVKGRFTISRDNAKNTVYLQMNSLKPEDTAVYYCNVSFYFHHAGYDYWGQGTQVTVSS", "polyreactivity (PSR sort gate)": "low polyreactivity"}
{"sequence": "QDQLVESGGGLVQAGGSLRLSCAASGFTFYSYAMGWYRQAPGKEREFVATITSSGGSTYYADSVKGRFTISRDTAKNTVYLQINSLNTEDTAVYYCAKDRYLYYRRRGQYDYWGQGTQVTVSS", "polyreactivity (PSR sort gate)": "high polyreactivity"}
{"sequence": "QDQLVESGGGLVQAGGSLRLSCAASGFTFYTNVMGWYRQAPGKERELVAAINSGGSTNYADSVKGRFTISRDNAKNTVYLQMNSMKPEDTAVYYCNKSGTEIGYDYWGQGTQVTVLS", "polyreactivity (PSR sort gate)": "low polyreactivity"}
{"sequence": "QDQLVESGGGLVQAGGSLRLSCAASGFTLSINAMGWYRQAPGKERELVAGISWSGGSTYYADSVKGRFTISRDNAKNTVYLQMNSLKPEDTAVYYCNADIYPDRYGSTNYDFNYWGQGTQVTVSS", "polyreactivity (PSR sort gate)": "low polyreactivity"}
{"sequence": "QDQLVESGGGLVQAGGSLRLSCAASGHIFPYNAMGWYRQAPGKEREIVAASSFRGGSTYYADSVKGRFTISRDNAKNTVYLQMNSLKPEDTAVDYCAKRSYPWGQGTQVTVSS", "polyreactivity (PSR sort gate)": "low polyreactivity"}
{"sequence": "QDQLVESGGGLVQAGGSLRLSCAASGIIFDVYAMGWYRPAPWNERELVAGITIGDITYYADSVKGRFTISRDNAKNTVYLQMNSLKPEDTAVYYCAADSYYYQTAYDYWGQGTQVTVSS", "polyreactivity (PSR sort gate)": "low polyreactivity"}
{"sequence": "QDQLVESGGGLVQAGGSLRLSCAASGIIFGAYAMGWYRQAPGKERELVAAISQSGGSTYYADSVKGRFTISRDNAKITVYLQMNSLKPEDTAVYYCNVDPDVILVTSYDYWGQGTQVTVSS", "polyreactivity (PSR sort gate)": "low polyreactivity"}
{"sequence": "QDQLVESGGGLVQAGGSLRLSCAASGIIFKYYAMGWYRQAPGKERELVAAITSGGSTNYADSVKGRFTISRDNAKNTVYLQMNSLKPEDTAVYYCAKRFYYRNRFDYWGHGTQVTVSS", "polyreactivity (PSR sort gate)": "low polyreactivity"}
{"sequence": "QDQLVESGGGLVQAGGSLRLSCAASGIIYLTYAMGRYRQEPGKERELVATITSGGRTIYADSVKGRFTISLDNAKNTVYLQMNRLKPVDTAVYYCNALRYYHYDYWGQGTQVTVSS", "polyreactivity (PSR sort gate)": "high polyreactivity"}
